In patent publication US20230002496A1 (STAIDSON BEIJING BIOPHARMACEUTICALS, published 2023):

T1: human GM-CSFRα, full length on cells (human, UniProt P15509 23-400)
T1 sequence: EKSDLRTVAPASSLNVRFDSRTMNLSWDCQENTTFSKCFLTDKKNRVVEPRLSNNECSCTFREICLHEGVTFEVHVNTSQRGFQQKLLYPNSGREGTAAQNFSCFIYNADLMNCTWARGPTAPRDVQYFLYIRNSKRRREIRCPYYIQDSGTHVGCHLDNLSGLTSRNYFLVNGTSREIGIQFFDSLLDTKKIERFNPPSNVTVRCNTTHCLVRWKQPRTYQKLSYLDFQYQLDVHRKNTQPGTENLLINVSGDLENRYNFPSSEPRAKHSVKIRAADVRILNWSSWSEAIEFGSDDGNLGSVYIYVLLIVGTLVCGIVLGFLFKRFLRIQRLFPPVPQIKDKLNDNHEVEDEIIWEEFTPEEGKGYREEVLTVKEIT


Target: T1, human GM-CSFRα, full length on cells
Experiment: cell-based or functional assay

| Binder | IC50, TF-1 cell proliferation |
| --- | --- |
| E35-scFv LS30R (scFv, V domains shown) VH: QMQLVQSGAEVKKPGASVKVSCKVSGYTLTELSIHWVRQAPGKGLEWMGGFDPEDGETIYAQKFQGRVTMTGDTSTDTAYLELSSLRSEDTALYYCATGRYTSLATTYGFDYWGQGTLVTVSS VL: EIVMTQSPATLSLSPGERATLSCRASQSVRSYLAWYQQKPGQAPRLLIYGASSRATGIPDRFSGSGSGTDFTLTISRLEPEDFAVYYCQQYDNWPYTFGQGTKLEIK | 0.088 µg/mL |
| E35-scFv LS30E (scFv, V domains shown) VH: QMQLVQSGAEVKKPGASVKVSCKVSGYTLTELSIHWVRQAPGKGLEWMGGFDPEDGETIYAQKFQGRVTMTGDTSTDTAYLELSSLRSEDTALYYCATGRYTSLATTYGFDYWGQGTLVTVSS VL: EIVMTQSPATLSLSPGERATLSCRASQSVESYLAWYQQKPGQAPRLLIYGASSRATGIPDRFSGSGSGTDFTLTISRLEPEDFAVYYCQQYDNWPYTFGQGTKLEIK | 0.1 µg/mL |
| E35-scFv LY32L (scFv, V domains shown) VH: QMQLVQSGAEVKKPGASVKVSCKVSGYTLTELSIHWVRQAPGKGLEWMGGFDPEDGETIYAQKFQGRVTMTGDTSTDTAYLELSSLRSEDTALYYCATGRYTSLATTYGFDYWGQGTLVTVSS VL: EIVMTQSPATLSLSPGERATLSCRASQSVSSLLAWYQQKPGQAPRLLIYGASSRATGIPDRFSGSGSGTDFTLTISRLEPEDFAVYYCQQYDNWPYTFGQGTKLEIK | 0.07 µg/mL |
| E35-scFv LY32T (scFv, V domains shown) VH: QMQLVQSGAEVKKPGASVKVSCKVSGYTLTELSIHWVRQAPGKGLEWMGGFDPEDGETIYAQKFQGRVTMTGDTSTDTAYLELSSLRSEDTALYYCATGRYTSLATTYGFDYWGQGTLVTVSS VL: EIVMTQSPATLSLSPGERATLSCRASQSVSSTLAWYQQKPGQAPRLLIYGASSRATGIPDRFSGSGSGTDFTLTISRLEPEDFAVYYCQQYDNWPYTFGQGTKLEIK | 0.51 µg/mL |
| E35-scFv LS30K (scFv, V domains shown) VH: QMQLVQSGAEVKKPGASVKVSCKVSGYTLTELSIHWVRQAPGKGLEWMGGFDPEDGETIYAQKFQGRVTMTGDTSTDTAYLELSSLRSEDTALYYCATGRYTSLATTYGFDYWGQGTLVTVSS VL: EIVMTQSPATLSLSPGERATLSCRASQSVKSYLAWYQQKPGQAPRLLIYGASSRATGIPDRFSGSGSGTDFTLTISRLEPEDFAVYYCQQYDNWPYTFGQGTKLEIK | 0.083 µg/mL |
| E35-scFv LS30T (scFv, V domains shown) VH: QMQLVQSGAEVKKPGASVKVSCKVSGYTLTELSIHWVRQAPGKGLEWMGGFDPEDGETIYAQKFQGRVTMTGDTSTDTAYLELSSLRSEDTALYYCATGRYTSLATTYGFDYWGQGTLVTVSS VL: EIVMTQSPATLSLSPGERATLSCRASQSVTSYLAWYQQKPGQAPRLLIYGASSRATGIPDRFSGSGSGTDFTLTISRLEPEDFAVYYCQQYDNWPYTFGQGTKLEIK | 0.092 µg/mL |
| E35-scFv LY32W (scFv, V domains shown) VH: QMQLVQSGAEVKKPGASVKVSCKVSGYTLTELSIHWVRQAPGKGLEWMGGFDPEDGETIYAQKFQGRVTMTGDTSTDTAYLELSSLRSEDTALYYCATGRYTSLATTYGFDYWGQGTLVTVSS VL: EIVMTQSPATLSLSPGERATLSCRASQSVSSWLAWYQQKPGQAPRLLIYGASSRATGIPDRFSGSGSGTDFTLTISRLEPEDFAVYYCQQYDNWPYTFGQGTKLEIK | 1.17 µg/mL |
| E35-scFv LS30V (scFv, V domains shown) VH: QMQLVQSGAEVKKPGASVKVSCKVSGYTLTELSIHWVRQAPGKGLEWMGGFDPEDGETIYAQKFQGRVTMTGDTSTDTAYLELSSLRSEDTALYYCATGRYTSLATTYGFDYWGQGTLVTVSS VL: EIVMTQSPATLSLSPGERATLSCRASQSVVSYLAWYQQKPGQAPRLLIYGASSRATGIPDRFSGSGSGTDFTLTISRLEPEDFAVYYCQQYDNWPYTFGQGTKLEIK | 0.124 µg/mL |

The next lines start with the values.

| IC50, TF-1 cell proliferation | Binder |
| --- | --- |
| 0.069 µg/mL | E35-scFv LS30L (scFv, V domains shown) VH: QMQLVQSGAEVKKPGASVKVSCKVSGYTLTELSIHWVRQAPGKGLEWMGGFDPEDGETIYAQKFQGRVTMTGDTSTDTAYLELSSLRSEDTALYYCATGRYTSLATTYGFDYWGQGTLVTVSS VL: EIVMTQSPATLSLSPGERATLSCRASQSVLSYLAWYQQKPGQAPRLLIYGASSRATGIPDRFSGSGSGTDFTLTISRLEPEDFAVYYCQQYDNWPYTFGQGTKLEIK |
| 0.073 µg/mL | E35-scFv LS30M (scFv, V domains shown) VH: QMQLVQSGAEVKKPGASVKVSCKVSGYTLTELSIHWVRQAPGKGLEWMGGFDPEDGETIYAQKFQGRVTMTGDTSTDTAYLELSSLRSEDTALYYCATGRYTSLATTYGFDYWGQGTLVTVSS VL: EIVMTQSPATLSLSPGERATLSCRASQSVMSYLAWYQQKPGQAPRLLIYGASSRATGIPDRFSGSGSGTDFTLTISRLEPEDFAVYYCQQYDNWPYTFGQGTKLEIK |
| 0.092 µg/mL | E35-scFv LS30G (scFv, V domains shown) VH: QMQLVQSGAEVKKPGASVKVSCKVSGYTLTELSIHWVRQAPGKGLEWMGGFDPEDGETIYAQKFQGRVTMTGDTSTDTAYLELSSLRSEDTALYYCATGRYTSLATTYGFDYWGQGTLVTVSS VL: EIVMTQSPATLSLSPGERATLSCRASQSVGSYLAWYQQKPGQAPRLLIYGASSRATGIPDRFSGSGSGTDFTLTISRLEPEDFAVYYCQQYDNWPYTFGQGTKLEIK |
| 0.87 µg/mL | E35-scFv LY32Q (scFv, V domains shown) VH: QMQLVQSGAEVKKPGASVKVSCKVSGYTLTELSIHWVRQAPGKGLEWMGGFDPEDGETIYAQKFQGRVTMTGDTSTDTAYLELSSLRSEDTALYYCATGRYTSLATTYGFDYWGQGTLVTVSS VL: EIVMTQSPATLSLSPGERATLSCRASQSVSSQLAWYQQKPGQAPRLLIYGASSRATGIPDRFSGSGSGTDFTLTISRLEPEDFAVYYCQQYDNWPYTFGQGTKLEIK |
| 0.078 µg/mL | E35-scFv LS30A (scFv, V domains shown) VH: QMQLVQSGAEVKKPGASVKVSCKVSGYTLTELSIHWVRQAPGKGLEWMGGFDPEDGETIYAQKFQGRVTMTGDTSTDTAYLELSSLRSEDTALYYCATGRYTSLATTYGFDYWGQGTLVTVSS VL: EIVMTQSPATLSLSPGERATLSCRASQSVASYLAWYQQKPGQAPRLLIYGASSRATGIPDRFSGSGSGTDFTLTISRLEPEDFAVYYCQQYDNWPYTFGQGTKLEIK |
| 0.132 µg/mL | E35-scFv LS30N (scFv, V domains shown) VH: QMQLVQSGAEVKKPGASVKVSCKVSGYTLTELSIHWVRQAPGKGLEWMGGFDPEDGETIYAQKFQGRVTMTGDTSTDTAYLELSSLRSEDTALYYCATGRYTSLATTYGFDYWGQGTLVTVSS VL: EIVMTQSPATLSLSPGERATLSCRASQSVNSYLAWYQQKPGQAPRLLIYGASSRATGIPDRFSGSGSGTDFTLTISRLEPEDFAVYYCQQYDNWPYTFGQGTKLEIK |
| 0.221 µg/mL | E35-scFv LS30C (scFv, V domains shown) VH: QMQLVQSGAEVKKPGASVKVSCKVSGYTLTELSIHWVRQAPGKGLEWMGGFDPEDGETIYAQKFQGRVTMTGDTSTDTAYLELSSLRSEDTALYYCATGRYTSLATTYGFDYWGQGTLVTVSS VL: EIVMTQSPATLSLSPGERATLSCRASQSVCSYLAWYQQKPGQAPRLLIYGASSRATGIPDRFSGSGSGTDFTLTISRLEPEDFAVYYCQQYDNWPYTFGQGTKLEIK |
| 0.071 µg/mL | E35-scFv LS30W (scFv, V domains shown) VH: QMQLVQSGAEVKKPGASVKVSCKVSGYTLTELSIHWVRQAPGKGLEWMGGFDPEDGETIYAQKFQGRVTMTGDTSTDTAYLELSSLRSEDTALYYCATGRYTSLATTYGFDYWGQGTLVTVSS VL: EIVMTQSPATLSLSPGERATLSCRASQSVWSYLAWYQQKPGQAPRLLIYGASSRATGIPDRFSGSGSGTDFTLTISRLEPEDFAVYYCQQYDNWPYTFGQGTKLEIK |
| 0.082 µg/mL | E35-scFv LS30Y (scFv, V domains shown) VH: QMQLVQSGAEVKKPGASVKVSCKVSGYTLTELSIHWVRQAPGKGLEWMGGFDPEDGETIYAQKFQGRVTMTGDTSTDTAYLELSSLRSEDTALYYCATGRYTSLATTYGFDYWGQGTLVTVSS VL: EIVMTQSPATLSLSPGERATLSCRASQSVYSYLAWYQQKPGQAPRLLIYGASSRATGIPDRFSGSGSGTDFTLTISRLEPEDFAVYYCQQYDNWPYTFGQGTKLEIK |
| 0.42 µg/mL | E35-scFv LY32M (scFv, V domains shown) VH: QMQLVQSGAEVKKPGASVKVSCKVSGYTLTELSIHWVRQAPGKGLEWMGGFDPEDGETIYAQKFQGRVTMTGDTSTDTAYLELSSLRSEDTALYYCATGRYTSLATTYGFDYWGQGTLVTVSS VL: EIVMTQSPATLSLSPGERATLSCRASQSVSSMLAWYQQKPGQAPRLLIYGASSRATGIPDRFSGSGSGTDFTLTISRLEPEDFAVYYCQQYDNWPYTFGQGTKLEIK |
| 0.21 µg/mL | E35-scFv LY32F (scFv, V domains shown) VH: QMQLVQSGAEVKKPGASVKVSCKVSGYTLTELSIHWVRQAPGKGLEWMGGFDPEDGETIYAQKFQGRVTMTGDTSTDTAYLELSSLRSEDTALYYCATGRYTSLATTYGFDYWGQGTLVTVSS VL: EIVMTQSPATLSLSPGERATLSCRASQSVSSFLAWYQQKPGQAPRLLIYGASSRATGIPDRFSGSGSGTDFTLTISRLEPEDFAVYYCQQYDNWPYTFGQGTKLEIK |
| 0.16 µg/mL | E35-scFv LS30F (scFv, V domains shown) VH: QMQLVQSGAEVKKPGASVKVSCKVSGYTLTELSIHWVRQAPGKGLEWMGGFDPEDGETIYAQKFQGRVTMTGDTSTDTAYLELSSLRSEDTALYYCATGRYTSLATTYGFDYWGQGTLVTVSS VL: EIVMTQSPATLSLSPGERATLSCRASQSVFSYLAWYQQKPGQAPRLLIYGASSRATGIPDRFSGSGSGTDFTLTISRLEPEDFAVYYCQQYDNWPYTFGQGTKLEIK |
